Measurements published in the DeepSol protein solubility set.

Assay: soluble on expression in E. coli; label from the status in PepcDB or PDB records

Sequence | soluble on expression in E. coli
MGSDKIHHHHHHMTAVNIWKPEDNIPREILAILSKPHPNYQLAFLNIIQLLKTQRRTGWVDHGIDPCESISDHMYRMGLTTMLITDKNVDRNKCIRIALVHDFAESLVGDITPNDPMTKEEKHRREFETVKYLCESIIRPCSESASREILDDWLAYEKQTCLEGRYVKDIDKYEMLVQCFEYEQKYNGKKDLKQFLGAINDIKTDEVKKWTQSLLEDRQAFFDSLKE | not soluble
MNSAGLEQCGMIMTRKNYYITTDGLLKRNENTLYFINKDLKRPIPINKIYSIYSYGALTISSQALNLLSKEGIPIHFFNRYGFYSGSFYPRETLLSGDVIIKQAEHVIDHDKRIELARSFVRGAALNMRRVLSYYGIENGISDTLMDLDSSNSVTDVMNVEGRIRSDYYNAIDSILPEGFRIGKRTRRPPENMTNAMISFGNSLLYSTVITELYNTQLNPTISYLHEPFERRYSLALDLSEIFKPTLIDRMIISLIKKKAIKAEDFEHGMNHCLLNNSGKRKFLAEYDRRLGKTVKHRELGRKVSYRRLIRLEAYKLIKHLIGQKSYEPFVMWW | not soluble
ETVHETPLLIFPPWINKFYILDLKPQNSLLKWLVDQGFTVFVVSWVNPDKSYAGIGMDDYIREGYMRAMAEVRSITRQKQINAVGYCIAGTTLTLTLAHLQKAGDPSVRSATFFTTLTDFSDPGEVGVFLNDDFVDGIERQVAVDGILDKTFMSRTFSYLRSNDLIYQPAIKSYMMGEAPPAFDLLYWNGDGTNLPAQMAVEYLRGLCQQDRLAGGTFPVLGSPVGLKDVTLPVCAIACETDHIAPWKSSFNGFRQFGSTDKTFILSQSGHV | not soluble
MAYDLWYWDGIPGRGEFVRLALEAGKIPYRDRAREPGEDMLADMRRRRDTAPFAPPYLVADGMTIAQTANILLFLGVEHGLAPPDRAGRLWVNQLQLTIADLTAEAHDVHHPVAAGLYYEDQQDVALRRAADFRETRMPKFMQYFEQALDRPGGWLTDMGRWSYADLSLYHVVEGLLHAFPRRMRTLMHRYPRLMTLHARVAELPELRGYLASDRRLPFGDGIFRHYPELDGA | not soluble
MRIEAHQVFNVSIQLCEFFNVDLSDRGYYQIRLRPRKTAEIGSVDISHDTEGDRDTGPKTSSNILLAHVYQGAAVSKTVEVTYQHEKFNLDDWFHISVQFNSTLNLCEPQKLEIEIELLYMDRYHPPQYESFVKITKRIVEIPLDPTRLVAAARSLYFDSTYLSAITMSVFSSLVMVATRQRKANASESASSTKSTKLRRVYNSSAHALLFATRSIQQFIVNNSRLINASVSVVVLDVQTEMKAALQQFDSSDHPTRCVETDVCEWSTKITLIYQQMLILFRKSKELNQQLLLIFDKQRRAVFREAFWINERPIDKCLIRTPVSVLEHYKSIIKVDYLRKLPRCTIFCEETDCPGEFCPIIFEDVFTRNSVGLLDLNNANRQVTIPNSASMPVVKAHEKHKSFREKLRNETRKLIHPRRKSLDCSQSLSRKLDGGVTSRSRTKTLKETTSTDGGGGLLLKNIPNSQENNFSPEFPGPSRDTATESPSCSSEPIASPSPSSEFGRCSAAGELFQDDGIPLISKESVTSEEIANALRTSVSADDVLSCRVTSSTDMKLTEEHPKDRMAEFELLREREAAKKMLRQQTNYEGHLYSEQSGRSTAGPVCTPIKSSLVIGDPVVRSKNKTHLVVFVHGLEGSQEDLVPFRCGLDQAIAAHYHCIQMEGRDFDEEPWAFEYLMSSANRSQTWADITTMAHNLLSEVREYVEEARNDIQRISFLAHSLGGVIVRSAVGLAPEVEMQWMIDRCYTLMTINSPHLGLAYVQKHIHWGVQFVKWWKKSRSMEQLSFRDSVDFASSFVYKTSLNNACGKFKNILLVGTPHDQLVPYMSSLLVPSKISSEDQSQFGEAYREMMTACLSSIQNSEKSENLVRYTTFHQLGSSNTQKITGRAAHVIALEDSVFIEKLFNISAVRYFV | not soluble
MGSDKIHHHHHHMKLTILTDNRAAPGLTCEHGFAVLIETGGKRILFDTGQLTAIDANCRALGIDLSDIDIIVLSHGHYDHTGNLADVLRIADRATLYLHPSALIERYSIRNDKPKPIDMPETAKQAINGLPKERVVWVTEPTRLTDGAFLTGPVPRQTTFEDTGGPFFFDPDGKTPDPIEDDLSLWIEKPEGLIVLAGCCHAGIVNTLDYIESITGQKRIATLIGGMHLSAASPERLNRTVASLANRDISRLIACHCTGQAAVERFSKELPYPVEAGYAGMVVESANE | not soluble
MHDALRAYIEKYASEKISDADFEEVKKAFTFKRYKKGQFLLQEGEVSKYTAFVLKGSMRQYSVDAKGTEHIIHFGIENWWVGDRESSTMLTPSNYNIDAIEDTEVLLTTSEDLQQLTAALPVIGKMVNTMNQRNFIASQKRIHDALSLTAEERYLELLKNHPDFLQRFPQTMLASYLGITAETYSRIRKKALK | not soluble
MSLKRFIPAWYSRNRWWESTSRPFYLKKQYTDFDDMISLMTMHSSNNVDYQLIVLSFSPYLRTFLHRYDLYESHYWSVFDEIQGIGHQTPQAIDYRDLSWPEGTEFIFTPFQIQAITGDNTFSKIHFSQEGYLMWVEDYKYSTIQRRFVFDDRGFISAVRTYTPDGDNNKKHYFSKDGEEIFVEDLNVNTVTINKNFQSKFKKVTYSSMAELIEEKFQSYVERELNEDDSVIVASDERHNSMMARTIDAPSLCFSIFTERNKVVTQDLYDSISRAYYCLVDTQANQNMIEHYAGLNMNNFNLLRVTPFDAQSLPNQSSQLYDTYIGLWIDGLDEIEIREIVNSLFQYIQHKDGYKLKILTKSRDNLTENLIDEVAHLNDLYHQEKKEISDVIEDVIQNKKETIIDIETVPFEEDLVSVISKLRVVVDLSLEPKLFLQICCIGAGIPQINKKRTDYVKHMHNGYIIDDISQTVESLDYFLAHLKNWNYSYAYSMRLTDDFSSINIIHQINQLFKGDVSSGTEGHHHHHH | soluble
MLPCLNEEESLPAVLAAIPAGYRALVVDNNSTDDTATVAARHGAQVVVEPRPGYGSAVHAGVLAATTPIVAVIDADGSMDAGDLPKLVAELDKGADLVTGRRRPVAGLHWPWVARVGTVVMSWRLRTRHRLPVHDIAPMRVARREALLDLGVVDRRSGYPLELLVRAAAAGWRVVELDVSYGPRTGGKSKVSGSLRGSIIAILDFWKVISLEHHHHHH | not soluble
MGSDKIHHHHHHMQGIQQSLPLAVVRGEPVRELPADLFIPPEALEVFLEAFEGPLDLLLYLIRKQKLDVIELPLTLIAAQYLEYIRLLTDARIELAADYLVMAATLAEIKSRLLLPKMAVEDDEEEDPRVRLIKQLKAYESIREAAFKLDELPRLERDVHQARAQAAPGLKPEVIPPDVSLKELALAFAEVLKRASAFEHHQVKKEVLSTRERMSEILAKLDHEHFTPFTALFSPEEGRGGVVVSFLALMELVKETLVELYQAEPLSGIYVKAT | not soluble
NTLTSQIEQLQSLAHELLYLGVDGAPIYTDHFRQLNKEVLEQSDALYPQRGATPEEEANICLALLMGYNATIYNQGDKEEKKQVVLNRCWDVLDQLPATLLKCQLLTYCYGEVFE | not soluble
MGESIPLAAPVPVEQAVLETFFSHLGIFSYDKAKDNVEKEREADKSAGGSWLSLLAALAHLAAAEKVYHSLTYLGQKLGGQSFFSRKDSIRTIYTSLHNELKKVVTGRGALGGTAPHVEELLSHLSEQLCFFVQARMEIADFYEKMYTLSTQKFINAEELVGLLDAIMKKYSSRFHHPILSPLESSFQLEVDVLCHLLKAQAQVSEWKFLPSLVNLHSAHTKLQTWGQIFEKQRETKKHLFGGQSQKAVQPPHLFLWLMKLKNMLLAKFSFYFHEALSRQTTASEMKTLTAKANPDFFGKISSFIRKYDAANVSLIFDNRGSESSQGHGYHHPHSYREAPKGVDQYPAVVSLPSDRPVMHWPNVIMIMTDRTSDLNSLEKVVHFYDDKVQSTYFLTRPEPHFTIVIIFESKKSERDSHFISFLNEVSLALKNPKVFASLKPGSKGSCYQCNYFVAFCLDYSKLLLQRK | not soluble
MSSNCTSTTAVAVAPLSASKTKTKKKHFVCQKVKLFRASEPILSVLMWGVNHTINELSNVPVPVMLMPDDFKAYSKIKVDNHLFNKENLPSRFKFKEYCPMVFRNLRERFGIDDQDYQNSVTRSAPINSDSQGRCGTRFLTTYDRRFVIKTVSSEDVAEMHNILKKYHQFIVECHGNTLLPQFLGMYRLTVDGVETYMVVTRNVFSHRLTVHRKYDLKGSTVAREASDKEKAKDLPTFKDNDFLNEGQKLHVGEESKKNFLEKLKRDVEFLAQLKIMDYSLLVGIHDVDRAEQEEMEVEERAEDEECENDGVGGNLLCSYGTPPDSPGNLLSFPRFFGPGEFDPSVDVYAMKSHESSPKKEVYFMAIIDILTPYDTKKKAAHAAKTVKHGAGAEISTVNPEQYSKRFNEFMSNILT | soluble
MRKIGIIGGTFDPPHYGHLLIANEVYHALNLEEVWFLPNQIPPHKQGRNITSVESRLQMLELATEAEEHFSICLEELSRKGPSYTYDTMLQLTKKYPDVQFHFIIGGDMVEYLPKWYNIEALLDLVTFVGVARPGYKLRTPYPITTVEIPEFAVSSSLLRERYKEKKTCKYLLPEKVQVYIERNGLYESLAAALEHHHHHH | soluble
MLPSHRSPDSATHDRIRKMTMNAMPQTAAQNETLHTCSIIVDDAQDFSPMLLDAGRDDTLISESMIPQIRTVAALIAAERHDFSRSSPAEFTDAADFFAARILVLGVRRFHLDVSLLQILKTANSRARRFAEKHRLFFTPAQAELSLNKHKNRRLLTVETEHEVENKGNPVANSLAFVRKLHTLPL | not soluble
MTKTWEQLSAIQPIGVKMLMNSIAKERISHAYLLEGEKGTGKFATAIQMAKSFLCSQRNRVEPCHVCTNCKRIDSGNHPNLHIVKPDGLSIKKQQIHDLQEEFSKTGLEANKKVYIIEHADRMTANAANALLKFLEEPSSDTTAILLTEQSHQILNTILSRCQVVTFRPLPTESLIRRLQDEGITVSLSTLAAQLTNSFDEALTLCNDEWFAQARALVIKLCEALEKDKASIFFVQEKWGKHFGEKEQLQQGLDMLLLIYKDLLYVQLGEEDRLVFREQKEMFESFSYAQKRIVSALFNILEAKNRINANVNAQLVFEQLVLRLQEG | not soluble
